Data reported in patent publication US20220332835A1 (SHANGHAITECH UNIVERSITY, published 2022).
Where a chain is given by its changes, count along the chain named.

T1: hCXCR1-mCherry (human, UniProt P25024 1-350)
T1 construct: whole, on cells; Overexpressed in U2OS cells; not shown: mCherry fluorescent tag
T1 sequence (looked up): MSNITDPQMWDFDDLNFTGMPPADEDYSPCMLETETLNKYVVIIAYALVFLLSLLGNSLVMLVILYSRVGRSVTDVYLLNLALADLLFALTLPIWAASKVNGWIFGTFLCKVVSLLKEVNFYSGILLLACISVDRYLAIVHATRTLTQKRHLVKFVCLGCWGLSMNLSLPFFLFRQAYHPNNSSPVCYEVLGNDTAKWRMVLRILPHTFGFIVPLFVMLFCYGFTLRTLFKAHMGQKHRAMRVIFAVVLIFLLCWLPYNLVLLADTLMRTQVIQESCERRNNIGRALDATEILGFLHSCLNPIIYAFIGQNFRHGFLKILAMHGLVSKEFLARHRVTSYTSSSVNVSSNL

T2: mCXCR2-mCherry (mouse, UniProt P35343 1-359)
T2 construct: whole, on cells; Overexpressed in U2OS cells; also called CXCR2 of mouse; not shown: mCherry fluorescent tag
T2 sequence (looked up): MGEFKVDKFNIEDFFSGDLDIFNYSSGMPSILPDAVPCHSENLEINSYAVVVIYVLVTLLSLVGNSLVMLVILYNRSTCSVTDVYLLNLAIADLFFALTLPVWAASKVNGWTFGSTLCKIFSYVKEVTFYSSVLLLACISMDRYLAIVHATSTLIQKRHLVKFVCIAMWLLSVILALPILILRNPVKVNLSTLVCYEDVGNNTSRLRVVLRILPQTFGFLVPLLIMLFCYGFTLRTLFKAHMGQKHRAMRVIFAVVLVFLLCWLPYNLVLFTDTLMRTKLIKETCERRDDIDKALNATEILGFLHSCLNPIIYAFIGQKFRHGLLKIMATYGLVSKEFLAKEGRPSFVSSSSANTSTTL

T3: rbCXCR2-mCherry (rabbit, UniProt P35344 1-358)
T3 construct: whole, on cells; Overexpressed in U2OS cells; also called rabbitCXCR2; CXCR2 of rabbit; not shown: mCherry fluorescent tag
T3 sequence (looked up): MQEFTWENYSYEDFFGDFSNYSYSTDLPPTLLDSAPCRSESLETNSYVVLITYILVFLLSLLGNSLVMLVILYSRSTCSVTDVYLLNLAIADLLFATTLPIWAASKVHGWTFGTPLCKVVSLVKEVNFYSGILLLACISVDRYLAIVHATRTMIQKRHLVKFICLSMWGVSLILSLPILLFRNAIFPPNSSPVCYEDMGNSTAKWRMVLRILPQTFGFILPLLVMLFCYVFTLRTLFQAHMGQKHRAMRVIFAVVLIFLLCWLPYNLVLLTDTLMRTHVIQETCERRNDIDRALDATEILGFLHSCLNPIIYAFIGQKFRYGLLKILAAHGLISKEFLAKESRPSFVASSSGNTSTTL

T4: rCXCR2-mCherry (rat, UniProt P35407 1-359)
T4 construct: whole, on cells; Overexpressed in U2OS cells; also called CXCR2 of rat; not shown: mCherry fluorescent tag
T4 sequence (looked up): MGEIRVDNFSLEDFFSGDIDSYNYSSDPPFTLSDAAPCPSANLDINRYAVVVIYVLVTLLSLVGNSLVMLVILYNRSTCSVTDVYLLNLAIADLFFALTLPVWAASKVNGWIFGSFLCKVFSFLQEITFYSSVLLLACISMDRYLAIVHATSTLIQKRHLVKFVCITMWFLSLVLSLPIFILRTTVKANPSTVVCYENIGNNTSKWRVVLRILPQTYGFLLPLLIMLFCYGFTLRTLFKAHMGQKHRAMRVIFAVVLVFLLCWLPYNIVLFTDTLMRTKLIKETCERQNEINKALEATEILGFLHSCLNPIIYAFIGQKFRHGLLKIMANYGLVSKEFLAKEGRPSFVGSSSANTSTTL

T5: pepN48 (peptide of the 48 N-terminal extracellular amino acids of human CXCR2) (human, biotin labeled on its N-terminus (panning, ELISA, SPR))
T5 construct: Synthetic; also called N-terminus of CXCR2
T5 peptide: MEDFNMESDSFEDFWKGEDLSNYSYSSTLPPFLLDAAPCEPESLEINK

T6: human CXCR2 (hCXCR2) on cells (human, UniProt P25025 1-360)
T6 sequence (looked up): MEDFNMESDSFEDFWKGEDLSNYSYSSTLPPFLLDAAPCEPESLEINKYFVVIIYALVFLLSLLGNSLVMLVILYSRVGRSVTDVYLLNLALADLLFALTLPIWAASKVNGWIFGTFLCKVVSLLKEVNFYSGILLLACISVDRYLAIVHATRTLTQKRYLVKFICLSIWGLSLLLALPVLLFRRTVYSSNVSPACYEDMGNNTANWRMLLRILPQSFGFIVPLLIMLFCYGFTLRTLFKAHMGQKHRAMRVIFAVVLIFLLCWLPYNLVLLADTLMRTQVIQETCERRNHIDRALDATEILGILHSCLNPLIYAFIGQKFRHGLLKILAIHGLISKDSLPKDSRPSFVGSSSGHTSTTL

B1: H8 (abN48) scFv combinatorial antibody (scFv, part only; not given: linker, domain order, IgG1 Fc, V domains shown, not shown: another chain or arm of the molecule; a dimerising Fc or GST; small tags and cut ends)
VH: QVQLVQSGAEVKKPGSSVKVSCKASGGTLSSYAISWVRQAPGQGPEWMGWINPNSGGTNYAQKFQGRVTMTRDTSISTAYMELSRLRPDDTAVYYCASGYCSSTSCYDYWGQGTLVTVSS
VL: QAVLTQPSSLSASPGASVSLTCTLRSGINVGAYRIYWYQQKPGSPPQFLLRYKSDSDKQQGSGVPSRFSGSRDASANAGILLISGLRSEDEADYYCAIWHSSAWVFGGGTQLTVL
B2: abN48-2-IgG1 (antibody, V domains shown)
VH: B1 VH with S103R, S105R
VL: QAVLTQPSSLSASPGASVSLTCTLRSGINVGAYRIYWYQQKPGSPPQFLLRYKSDSDKQQGSGVPSRFSGSRDASANAGILLISGLRSEDEADYYCAIWHSSAWVFGGGTQLTVLG
notes: Full-length human IgG1, lambda light chain; also called ab48-2-IgG1; abN48-2-IgG2 (as misprinted)

How the values were obtained:
[1] = target: hCXCR2-mCherry (human CXCR2 fused with mCherry, on U2OS cells) (human) (UniProt P25025); experiment: flow cytometry, U2OS cells with hCXCR2-mCherry (ECD-A axis), antibody staining on the FITC-A axis; other quadrants UL 1.80%, LL 33.80%, LR 18.24%
[2] = target: pepN48 (peptide of the 48 N-terminal extracellular amino acids of human CXCR2) (human); experiment: SPR, Biacore
hCXCR1-mCherry = target: T1, hCXCR1-mCherry; experiment: FACS on transfected U2OS cells (also immunofluorescence)
Protocol: (§1) Cells were transfected with expression plasmids containing target membrane proteins. After 24 hours, cells were detached from dish and re-suspended in a FACS buffer (0.5% BSA in PBS, with 2 mM EDTA). 500,000 cells per tube were incubated with 2 μg/mL corresponding antibody in a FACS buffer at 4° C. for 15 min. […] After two washes with the FACS buffer, cells were re-suspended in PBS and analyzed by CytoFLEX S (Beckman Coulter).

mCXCR2-mCherry = target: T2, mCXCR2-mCherry; experiment: as above
Protocol: as §1

rbCXCR2-mCherry = target: T3, rbCXCR2-mCherry; experiment: FACS on transfected U2OS cells
Protocol: as §1

rCXCR2-mCherry = target: T4, rCXCR2-mCherry; experiment: FACS on transfected U2OS cells
Protocol: as §1

[3] = target: T5, pepN48 (peptide of the 48 N-terminal …); experiment: SPR, Biacore T200; biotinylated pepN48 on SA chip;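 also: antibodies flowed in HBS-EP+ running buffer over the immobilized antigen at 0.5 to 10 nM, kinetic traces fitted to a protein-protein interaction model to derive constants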
Protocol: (§2) Biotinylated antigen (purified protein or peptide) was loaded on the streptavidin coated surface of a SA biosensor chip (GE healthcare) to form a single molecular layer. The interaction between antibody and antigen was carried out on a Biacore T200 system (GE Healthcare). Briefly, testing antibody were serially diluted in a running buffer, HBS-EP+buffer (GE Healthcare), to different concentrations of 0.5, 1, 2, 5, 10 nM, and flowed through the surface of chip for the detection of molecular interaction between antigen and antibody. Kinetics of binding/dissociation were measured and fitted to an appropriate protein-protein interaction model to calculate the corresponding binding constant (KD).

[4] = target: T6, human CXCR2 (hCXCR2) on cells; experiment: cell-based or functional assay
[5] = target: T5, pepN48 (peptide of the 48 N-terminal …); experiment: SPR
Protocol: as §2

Row | Binder | percent of cells in quadrant Q1-UR (FITC-A high and ECD-A high) [1] [%] | Kd [2] [nM] | binding result (hCXCR1-mCherry) | binding result (mCXCR2-mCherry) | binding result (rbCXCR2-mCherry) | binding result (rCXCR2-mCherry) | Kd [3] [nM] | inhibition of GROα-induced (EC80) β-arrestin recruitment, Tango assay, apparent IC50 [4] [nM] | inhibition of GROα-induced (EC90) Ca2+ influx, FLIPR, IC50 [4] [nM] | inhibition of IL8-induced (EC80) β-arrestin recruitment, Tango assay, apparent IC50 [4] [nM] | inhibition of IL8-induced (EC90) Ca2+ influx, FLIPR, IC50 [4] [nM] | partial agonist effect on Ca2+ influx, FLIPR, apparent EC50 [4] [nM] | fold improvement of KD against abN48-IgG1 [5] [fold]
1 | B1 | 46.2 | 2.6 |  |  |  |  |  |  |  |  |  |  | 
2 | B2 |  |  | no binding (tested: 2 µg/mL) | no binding (tested: 2 µg/mL) | no binding (tested: 2 µg/mL) | no binding (tested: 2 µg/mL) | 0.0072 | 0.37 | 110 | 0.9 | 44 | 310 | 100
